Laboratory results from article PMC9276969.

Biological target: V5-tagged L. vannamei STAT (Litopenaeus vannamei)
Test: native gel or EMSA; S2 cells co-transfected with pAc5.1-STAT and pAc5.1-PTPN6 or pAc5.1-GFP (control); lysed in Pierce IP Lysis buffer at 48 h; 10% native PAGE, Western blot with antibody against shrimp STAT; dimer and monomer bands

stoichiometry N: 2
Substance: V5-tagged L. vannamei STAT (natural protein)
